Laboratory results taken from PMC10397247.
Read-outs that look alike come from different tables or passages of the source.

Columns and labels:
[1] = target: T1, 4H3409-AA; assay: two-hybrid library CCmax;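 further: natural log of median RNA to DNA barcode read ratio; higher means stronger binding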
T1 chain: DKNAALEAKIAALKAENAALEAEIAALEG

[2] = target: T2, 4H3625-AA; assay: two-hybrid library CCmax; conditions: mean of both orientations;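 further: natural log of median RNA to DNA barcode read ratio; higher means stronger binding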
T2 chain: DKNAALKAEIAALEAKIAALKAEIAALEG

[3] = target: T3, 4H390-AA; assay: two-hybrid library CCmax; conditions: mean of both orientations;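 further: natural log of median RNA to DNA barcode read ratio; higher means stronger binding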
T3 chain: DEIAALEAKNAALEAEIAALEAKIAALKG

[4] = target: T4, 4H3940-AA; assay: two-hybrid library CCmax; conditions: mean of both orientations;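 further: natural log of median RNA to DNA barcode read ratio; higher means stronger binding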
T4 chain: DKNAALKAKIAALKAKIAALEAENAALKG

[5] = target: T5, 4H510-AA; assay: two-hybrid library CCmax; conditions: mean of both orientations
T5 chain: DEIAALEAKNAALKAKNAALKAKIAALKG

[6] = target: T6, 4H775-AA; assay: two-hybrid library CCmax; conditions: mean of both orientations
T6 chain: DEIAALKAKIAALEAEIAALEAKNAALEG

[7] = target: T7, 4H816-AA; assay: two-hybrid library CCmax; conditions: mean of both orientations
T7 chain: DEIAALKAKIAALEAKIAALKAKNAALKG

[8] = target: T8, 4H87-AA; assay: two-hybrid library CCmax; conditions: mean of both orientations
T8 chain: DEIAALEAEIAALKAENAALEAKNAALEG

[9] = target: T9, 4H591-bH; assay: two-hybrid library CCNG1
T9 chain: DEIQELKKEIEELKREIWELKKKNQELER

[10] = target: T10, 4H626-bH; assay: two-hybrid library CCNG1
T10 chain: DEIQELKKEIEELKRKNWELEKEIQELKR

[11] = target: T11, 4H906-bH; assay: two-hybrid library CCNG1
T11 chain: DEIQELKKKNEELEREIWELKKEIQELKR

[12] = target: T12, 4H2389-AA; assay: two-hybrid library CCmax
T12 chain: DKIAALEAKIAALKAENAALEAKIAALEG

[13] = target: T13, 4H2438-AA; assay: two-hybrid library CCmax; conditions: mean of both orientations
T13 chain: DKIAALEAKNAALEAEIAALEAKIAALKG

[14] = target: T14, 4H2473-AA; assay: two-hybrid library CCmax; conditions: mean of both orientations
T14 chain: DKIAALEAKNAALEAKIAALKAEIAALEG

[15] = target: T15, 4H2649-AA; assay: two-hybrid library CCmax; conditions: mean of both orientations
T15 chain: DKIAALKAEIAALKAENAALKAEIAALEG

[16] = target: T16, 4H2698-AA; assay: two-hybrid library CCmax; conditions: mean of both orientations
T16 chain: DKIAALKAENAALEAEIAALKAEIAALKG

[17] = target: T17, 4H2725-AA; assay: two-hybrid library CCmax; conditions: mean of both orientations
T17 chain: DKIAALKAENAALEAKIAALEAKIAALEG

[18] = target: T18, 4H2865-AA; assay: two-hybrid library CCmax; conditions: mean of both orientations
T18 chain: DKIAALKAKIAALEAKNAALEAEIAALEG

[19] = target: T19, 4H3009-AA; assay: two-hybrid library CCmax; conditions: mean of both orientations
T19 chain: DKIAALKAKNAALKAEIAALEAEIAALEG

[20] = target: T20, 4H3016-AA; assay: two-hybrid library CCmax; conditions: mean of both orientations
T20 chain: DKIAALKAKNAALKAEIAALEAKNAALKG

[21] = target: T21, 4H310-AA; assay: two-hybrid library CCmax; conditions: mean of both orientations
T21 chain: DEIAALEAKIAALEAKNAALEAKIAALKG

[22] = target: T22, 4H3120-AA; assay: two-hybrid library CCmax; conditions: mean of both orientations
T22 chain: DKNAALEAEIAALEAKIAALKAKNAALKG

[23] = target: T23, 4H3130-AA; assay: two-hybrid library CCmax; conditions: mean of both orientations
T23 chain: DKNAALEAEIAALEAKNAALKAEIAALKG

[24] = target: T24, 4H3165-AA; assay: two-hybrid library CCmax; conditions: mean of both orientations
T24 chain: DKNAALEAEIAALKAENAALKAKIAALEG

[25] = target: T25, 4H3381-AA; assay: two-hybrid library CCmax; conditions: mean of both orientations
T25 chain: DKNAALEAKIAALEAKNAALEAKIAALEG

[26] = target: T26, 4H3395-AA; assay: two-hybrid library CCmax; conditions: mean of both orientations
T26 chain: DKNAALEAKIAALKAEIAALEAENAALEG

[27] = target: T27, 4H3410-AA; assay: two-hybrid library CCmax; conditions: mean of both orientations
T27 chain: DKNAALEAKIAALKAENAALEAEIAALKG

[28] = target: T28, 4H3590-AA; assay: two-hybrid library CCmax; conditions: mean of both orientations
T28 chain: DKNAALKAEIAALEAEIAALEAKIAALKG

[29] = target: T29, 4H3697-AA; assay: two-hybrid library CCmax; conditions: mean of both orientations
T29 chain: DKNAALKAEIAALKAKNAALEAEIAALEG

[30] = target: T30, 4H3753-AA; assay: two-hybrid library CCmax; conditions: mean of both orientations
T30 chain: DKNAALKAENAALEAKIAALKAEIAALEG

[31] = target: T31, 4H3865-AA; assay: two-hybrid library CCmax; conditions: mean of both orientations
T31 chain: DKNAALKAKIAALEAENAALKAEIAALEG

[32] = target: T32, 4H458-AA; assay: two-hybrid library CCmax; conditions: mean of both orientations
T32 chain: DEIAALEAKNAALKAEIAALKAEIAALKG

[33] = target: T33, 4H485-AA; assay: two-hybrid library CCmax
T33 chain: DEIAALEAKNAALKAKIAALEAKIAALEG

[34] = target: T34, 4H536-AA; assay: two-hybrid library CCmax; conditions: mean of both orientations
T34 chain: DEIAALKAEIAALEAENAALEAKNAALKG

[35] = target: T35, 4H570-AA; assay: two-hybrid library CCmax; conditions: mean of both orientations
T35 chain: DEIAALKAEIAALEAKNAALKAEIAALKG

[36] = target: T36, 4H629-AA; assay: two-hybrid library CCmax; conditions: mean of both orientations
T36 chain: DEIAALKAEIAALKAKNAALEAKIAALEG

[37] = target: T37, 4H710-AA; assay: two-hybrid library CCmax; conditions: mean of both orientations
T37 chain: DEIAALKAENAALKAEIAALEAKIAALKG

[38] = target: T38, 4H745-AA; assay: two-hybrid library CCmax; conditions: mean of both orientations
T38 chain: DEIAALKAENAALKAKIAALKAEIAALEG

[39] = target: T39, 4H797-AA; assay: two-hybrid library CCmax; conditions: mean of both orientations
T39 chain: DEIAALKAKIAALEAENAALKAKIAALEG

[40] = target: T40, 4H850-AA; assay: two-hybrid library CCmax; conditions: mean of both orientations
T40 chain: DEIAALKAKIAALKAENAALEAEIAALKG

[41] = target: T41, 4H891-AA; assay: two-hybrid library CCmax; conditions: mean of both orientations
T41 chain: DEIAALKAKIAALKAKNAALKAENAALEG

[42] = target: T42, 4H909-AA; assay: two-hybrid library CCmax; conditions: mean of both orientations
T42 chain: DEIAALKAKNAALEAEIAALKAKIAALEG

[43] = target: T43, 4H930-AA; assay: two-hybrid library CCmax; conditions: mean of both orientations
T43 chain: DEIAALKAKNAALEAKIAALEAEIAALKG

[44] = target: T44, 4H94-AA; assay: two-hybrid library CCmax; conditions: mean of both orientations
T44 chain: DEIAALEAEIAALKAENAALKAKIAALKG

[45] = target: T45, 4H406-AA; assay: two-hybrid library CCmax
T45 chain: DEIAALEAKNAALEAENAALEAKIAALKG

[46] = target: T46, 4H452-AA; assay: two-hybrid library CCmax; conditions: mean of both orientations
T46 chain: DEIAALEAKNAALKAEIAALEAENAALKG

[47] = target: T47, 4H56-AA; assay: two-hybrid library CCmax; conditions: mean of both orientations
T47 chain: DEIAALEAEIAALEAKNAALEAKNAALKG

[48] = target: T48, 4H688-AA; assay: two-hybrid library CCmax
T48 chain: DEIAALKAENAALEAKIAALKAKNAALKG

[49] = target: T49, 4H963-AA; assay: two-hybrid library CCmax; conditions: mean of both orientations
T49 chain: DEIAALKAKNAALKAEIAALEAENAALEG

[50] = target: T50, 4H_APH; assay: two-hybrid library CCmax; conditions: mean of both orientations
T50 chain: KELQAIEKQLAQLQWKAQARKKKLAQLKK

[51] = target: T51, 4H_BCR; assay: two-hybrid library CCmax; conditions: mean of both orientations
T51 chain: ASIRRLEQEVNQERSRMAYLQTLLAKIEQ

[52] = target: 4H_GCN4; assay: two-hybrid library CCmax
[53] = target: GCN2_T; assay: two-hybrid library CCmax
[54] = target: T52, 4H953-AA; assay: two-hybrid library CCmax
T52 chain: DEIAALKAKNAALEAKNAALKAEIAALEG

[55] = target: T53, 4H967-AA; assay: two-hybrid library CCmax; conditions: mean of both orientations
T53 chain: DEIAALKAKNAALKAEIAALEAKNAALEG

[56] = target: T54, 4H3297-bN; assay: two-hybrid library CCNG1
T54 chain: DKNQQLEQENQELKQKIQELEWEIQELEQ

[57] = target: T55, 4H3364-bN; assay: two-hybrid library CCNG1
T55 chain: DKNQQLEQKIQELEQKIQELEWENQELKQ

[58] = target: T56, 4H3381-bN; assay: two-hybrid library CCNG1
T56 chain: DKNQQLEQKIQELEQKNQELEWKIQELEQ

[59] = target: T57, 4H349-bN; assay: two-hybrid library CCNG1
T57 chain: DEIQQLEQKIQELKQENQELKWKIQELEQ

[60] = target: T58, 4H56-bN; assay: two-hybrid library CCNG1
T58 chain: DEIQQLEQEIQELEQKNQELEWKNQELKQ

[61] = target: T59, 4H730-bN; assay: two-hybrid library CCNG1
T59 chain: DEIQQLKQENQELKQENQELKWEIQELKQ

[62] = target: T60, 4H796-bN; assay: two-hybrid library CCNG1
T60 chain: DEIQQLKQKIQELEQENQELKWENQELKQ

[63] = target: T61, 4H932-bN; assay: two-hybrid library CCNG1
T61 chain: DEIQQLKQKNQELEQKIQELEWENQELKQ

[64] = target: T62, 4H949-bN; assay: two-hybrid library CCNG1
T62 chain: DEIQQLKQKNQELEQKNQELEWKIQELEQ

Sequence of 4H_GCN4 (chain, as listed by the source): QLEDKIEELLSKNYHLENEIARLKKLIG

## DKNAALEAKIAALKAENAALEAEIAALEG [4H3409-AA]
[1]
  interaction score: -1.02
[2]
  interaction score: -0.625
[3]
  interaction score: -1.28
[4]
  interaction score: -1.12
[5]
  interaction score: 0.697
[6]
  interaction score: -1.25
[7]
  interaction score: -1.37
[8]
  interaction score: -1.93

## DEIQELKKEIEELKREIWELKKKNQELER [4H591-bH]
[9]
  interaction score: 1.58
[10]
  interaction score: -0.53
[11]
  interaction score: -0.784

## DKIAALEAKIAALKAENAALEAKIAALEG [4H2389-AA]
[12]
  interaction score: 2.02
[13]
  interaction score: -0.27
[14]
  interaction score: -1.3
[15]
  interaction score: 1.07
[16]
  interaction score: -0.843
[17]
  interaction score: -0.942
[18]
  interaction score: 1.02
[19]
  interaction score: 1.53
[20]
  interaction score: 0.227
[21]
  interaction score: 1.8
[22]
  interaction score: -0.79
[23]
  interaction score: 1.81
[24]
  interaction score: 0.858
[25]
  interaction score: -0.842
[26]
  interaction score: -1.54
[27]
  interaction score: -1.2
[28]
  interaction score: -0.0915
[29]
  interaction score: -1.74
[30]
  interaction score: -1.26
[31]
  interaction score: -0.601
[32]
  interaction score: -0.364
[33]
  interaction score: 0.153
[34]
  interaction score: -0.282
[35]
  interaction score: 1.65
[36]
  interaction score: -0.106
[37]
  interaction score: 0.392
[38]
  interaction score: -1.25
[39]
  interaction score: 1.3
[40]
  interaction score: -0.804
[41]
  interaction score: -0.959
[42]
  interaction score: -1.35
[43]
  interaction score: -0.305
[44]
  interaction score: 1.99

## DEIAALEAKNAALEAENAALEAKIAALKG [4H406-AA]
[45]
  interaction score: -0.644
[46]
  interaction score: -0.548
[47]
  interaction score: -1.47
[48]; mean of both orientations
  interaction score: -1.54
[49]
  interaction score: -1.6
[50]
  interaction score: -1.29
[51]
  interaction score: -2.11
[52]
  interaction score: -1.67
[53]
  interaction score: -1.43

## DEIAALKAKNAALEAKNAALKAEIAALEG [4H953-AA]
[54]
  interaction score: -1.02
[55]
  interaction score: -1.73

## DKNQQLEQENQELKQKIQELEWEIQELEQ [4H3297-bN]
[56]
  interaction score: -0.0469
[57]
  interaction score: -0.913
[58]
  interaction score: -1.01
[59]
  interaction score: -2.11
[60]
  interaction score: -0.798
[61]
  interaction score: -0.799
[62]
  interaction score: -0.556
[63]
  interaction score: -1.21
[64]
  interaction score: -1.29

## DEIAALKAENAALEAKIAALKAKNAALKG [4H688-AA]
[48]
  interaction score: -1.23
[49]
  interaction score: 1.46
